Test results as given in patent WO2007059300A2 (dated 2007).

B1: fully human anti-ALK IgG E5 (antibody, V domains shown)
VH: EVQLLESGGGLVQPGGSLRLSCAASGFTFSLYPMMWVRQAPGKGLEWVSVISSSGGFTFYADSVKGRFTISRDNSKNTLYLQMNSLRAEDTAVYYCARSLAYIFDAFDIWGQGTMVTVSS
VL: DIQMTQSPGTLSLSPGERATLYCRASQSLYSSYLAWYQQRPGQAPRLLIYDTSSRATGIPDRFSGSGSGTDFTLTISRLEPEDFAVYYCQQYGTSLRTFGQGTKVEIK
notes: Full length fully human IgG
B2: fully human anti-ALK IgG E1 (antibody, V domains shown)
VH: EVQLLESGGGLVQPGGSLRLSCAASGFTFSWYSMWWVRQAPGKGLEWVSSIRPSGGKTTYADSVKGRFTISRDNSKNTLYLQMNSLRAEDTAVYYCAKGLDPNGIAAAGGEGYWGQGTLVTVSS
VL: QSALTQPASVSGSPGQSITITCSGDALPKQFGYWYQQKPGQAPILVIYKDTERPSGIPERFSGSSSGTIVTLTISGVRAEDEADYYCQSADSSGNSVVFGGGTKLTVLG
notes: Full length fully human IgG; also called El
B3: fully human anti-ALK IgG B8 (antibody, V domains shown)
VH: EVQLLESGGGLVQPGGSLRLSCAASGFTFSQYVMAWVRQAPGKGLEWVSSIWSSGGMTWYADSVKGRFTISRDNSKNTLYLQMNSLRAEDTAVYYCAKHGVLRYFDWSMPFDFWGQGTLVTVSS
VL: DIQMTQSPPSLSASVGDRVTITCRTSQNISSYLNWYQQKPGKAPKLLIYAASSLQSGVPSRFSGSGSGTDFTLTIRSLQPEDFAAYYCQQSYTSLTFGGGTKVEIK
notes: Full length fully human IgG
B4: fully human anti-ALK IgG A2 (antibody, V domains shown)
VH: EVQLLESGGGLVQPGGSLRLSCAASGFTFSGYTMYWVRQAPGKGLEWVSSISPSGGITFYADSVKGRFTISRDNSKNTLYLQMNSLRAEDTAVYYCARGRLFWSGYYTNRLGYAFDIWGQGTMVTVSS
VL: DIQMTQSPSSLSASVGDRVTITCRASQSIRSYLNWYQQKPGKAPKLLIYAASNLQSGVPSRFSGSGSGTDFTLSISSLQPEDFATYYCQQSYSTLWTFGQGTKVEIK
notes: Full length fully human IgG
B5: fully human anti-ALK IgG D10 (antibody, V domains shown)
VH: EVQLLESGGGLVQPGGSLRLSCAASGFTFSKYGMHWVRQAPGKGLEWVSYIVPSGGYTIYADSVKGRFTISRDNSKNTLYLQMNSLRAEDTAMYYCAKLAGDWFDPWGQGTLVTVSS
VL: DIQMTQSPLSLPVTLGQPASISCRSSQSLVHSNGNTYLSWFHQRPGQSPRRLIHKISDRVSGVPDRFSGSGSGTDFTLKISRLEAEDVGIYYCMQGTHWPPTFGQGTKVEIK
notes: Full length fully human IgG; also called DlO; DlO antibody
B6: fully human anti-ALK IgG B6 (antibody, V domains shown)
VH: EVQLLESGGGLVQPGGSLRLSCAASGFTFSFYTMFWVRQAPGKGLEWVSSIRPSGGLTGYADSVKGRFTISRDNSKNTLYLQMNSLRAEDTAVYYCARGMQRGLDYWGQGTLVTVSS
VL: QSALSQPPSASGTPGQRVSISCSGSSSNIGSYYVYWYQHLPGTAPKLLIYRNNQRPSGVPDRFSGSKSGTSASLAISGLRSEDESDYYCAAWDDRLSAWVFGGGTKLTVLG
notes: Full length fully human IgG
B7: fully human anti-ALK IgG A7 (antibody, V domains shown)
VH: EVQLLESGGGLVQPGGSLRLSCAASGFTFSNYIMSWVRQAPGKGLEWVSWISSSGGFTQYADSVKGRFTISRDNSKNTLYLQMNSLRAEDTAVYYCARVIAAAGAFDYWGQGTLVTVSS
VL: DIQMTQSPSSVAASVGDRVTITCRASQDISTWLAWYQQKPGKAPKLLLSGASRLERGVPSRFSGSGSGTDFTLTIRGLQSEDFATYYCQQARSFPPTFGQGTRVEMR
notes: Full length fully human IgG
B8: fully human anti-ALK IgG C1 (antibody, V domains shown)
VH: EVQLLESGGGLVQPGGSLRLSCAASGFTFSMYPMDWVRQAPGKGLEWVSRISSSGGTTEYADSVKGRFTISRDNSKNTLYLQMNSLRAEDTAVYYCTRRFCISGVCPFEYWGQGTLVTVSS
VL: QSALTQPPSASGTPGQRVTISCSGSSSNIGSNTVNWYQQLPGTAPKLLIYSNNQRPSGVPDRFSGSKSGTSASLAISGLQSEDEADYYCQSYDNSLTNFVFGSGTKVTVLG
notes: Full length fully human IgG; also called Cl
B9: fully human anti-ALK IgG D5 (antibody, V domains shown)
VH: EVQLLESGGGLVQPGGSLRLSCAASGFTFSNYRMSWVRQAPGKGLEWVSWIYSSGGMTTYADSVKGRFTISRDNSKNTLYLQMNSLRAEDTAVYYCARERSKNYDTSVPVGFDIWGQGTMVTVSS
VL: DIQMTQSPATLSLSPGERATLSCRASQSISSFLAWYQHKPGQAPRLLIYDASNRATGIPARFSGSGSGTDFTLTISSLEPEDFAVYYCQQRTTWPPALTFGGGTKVEIK
notes: Full length fully human IgG
B10: fully human anti-ALK IgG B2 (antibody, V domains shown)
VH: EVQLLESGGGLVQPGGSLRLSCAASGFTFSHYMMEWVRQAPGKGLEWVSGIVPSGGLTTYADSVKGRFTISRDNSKNTLYLQMNSLRAEDTAVYYCATITMGAFDIWGQGTMVTVSS
VL: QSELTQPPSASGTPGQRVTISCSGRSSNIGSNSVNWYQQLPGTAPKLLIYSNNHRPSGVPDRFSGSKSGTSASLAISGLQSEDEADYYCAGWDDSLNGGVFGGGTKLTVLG
notes: Full length fully human IgG

Target: T1, ALK-ECD-myc/his tag protein (human, UniProt Q9UM73 19-1038)
T1 construct: Expressed in 293/293F cells and purified from conditioned medium; biotin labelled for the soluble panning; also called recombinant ALK-ECD-myc/his tag; ALK-ECD protein; not shown: Myc/His tag
Test: ELISA, ALK-ECD-myc/his coated at 10 μg/mL, anti-human IgG-HRP

T1 sequence (Q9UM73 other isoform, or with tags, fused parts or gaps): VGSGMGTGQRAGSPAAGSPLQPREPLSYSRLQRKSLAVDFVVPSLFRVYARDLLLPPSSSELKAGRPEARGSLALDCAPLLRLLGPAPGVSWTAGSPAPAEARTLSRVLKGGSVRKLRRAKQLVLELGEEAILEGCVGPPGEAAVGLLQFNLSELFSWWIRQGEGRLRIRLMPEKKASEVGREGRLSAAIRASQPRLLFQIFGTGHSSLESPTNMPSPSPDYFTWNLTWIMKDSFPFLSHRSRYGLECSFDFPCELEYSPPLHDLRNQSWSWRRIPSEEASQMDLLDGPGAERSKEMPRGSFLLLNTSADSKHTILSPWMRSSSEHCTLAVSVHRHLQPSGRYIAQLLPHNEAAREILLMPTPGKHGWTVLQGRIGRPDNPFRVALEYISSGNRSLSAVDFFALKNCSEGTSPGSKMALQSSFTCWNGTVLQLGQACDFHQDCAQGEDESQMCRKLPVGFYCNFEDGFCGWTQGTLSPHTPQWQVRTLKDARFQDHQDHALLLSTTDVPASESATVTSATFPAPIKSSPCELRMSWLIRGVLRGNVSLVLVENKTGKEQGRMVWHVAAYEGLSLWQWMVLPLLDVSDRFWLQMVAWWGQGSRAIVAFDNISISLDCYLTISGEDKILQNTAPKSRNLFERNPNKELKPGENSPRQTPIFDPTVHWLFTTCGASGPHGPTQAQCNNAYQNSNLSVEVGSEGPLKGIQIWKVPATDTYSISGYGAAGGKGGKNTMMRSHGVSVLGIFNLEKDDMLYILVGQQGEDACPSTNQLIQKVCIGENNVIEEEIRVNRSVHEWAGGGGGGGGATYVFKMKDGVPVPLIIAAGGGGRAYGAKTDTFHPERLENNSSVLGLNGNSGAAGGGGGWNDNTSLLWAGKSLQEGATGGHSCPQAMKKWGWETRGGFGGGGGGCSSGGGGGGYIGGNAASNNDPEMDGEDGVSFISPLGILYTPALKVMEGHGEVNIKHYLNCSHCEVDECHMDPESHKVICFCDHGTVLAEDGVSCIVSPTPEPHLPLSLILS

binding result | Binder
binds | B1
binds | B2
binds | B3
binds | B4
binds | B5
binds | B6
binds | B7
binds | B8
binds | B9
binds | B10

Target: T2, ALK expressed on the cell surface (human, UniProt Q9UM73 19-1620)
T2 construct: also called ALK protein expressed on the cell surface; ALK-expressing cells
Test: FACS on ALK positive cells, 1 to 20 μg/mL IgG, FITC anti-human IgG

T2 sequence (Q9UM73 other isoform, or with tags, fused parts or gaps limits assumed): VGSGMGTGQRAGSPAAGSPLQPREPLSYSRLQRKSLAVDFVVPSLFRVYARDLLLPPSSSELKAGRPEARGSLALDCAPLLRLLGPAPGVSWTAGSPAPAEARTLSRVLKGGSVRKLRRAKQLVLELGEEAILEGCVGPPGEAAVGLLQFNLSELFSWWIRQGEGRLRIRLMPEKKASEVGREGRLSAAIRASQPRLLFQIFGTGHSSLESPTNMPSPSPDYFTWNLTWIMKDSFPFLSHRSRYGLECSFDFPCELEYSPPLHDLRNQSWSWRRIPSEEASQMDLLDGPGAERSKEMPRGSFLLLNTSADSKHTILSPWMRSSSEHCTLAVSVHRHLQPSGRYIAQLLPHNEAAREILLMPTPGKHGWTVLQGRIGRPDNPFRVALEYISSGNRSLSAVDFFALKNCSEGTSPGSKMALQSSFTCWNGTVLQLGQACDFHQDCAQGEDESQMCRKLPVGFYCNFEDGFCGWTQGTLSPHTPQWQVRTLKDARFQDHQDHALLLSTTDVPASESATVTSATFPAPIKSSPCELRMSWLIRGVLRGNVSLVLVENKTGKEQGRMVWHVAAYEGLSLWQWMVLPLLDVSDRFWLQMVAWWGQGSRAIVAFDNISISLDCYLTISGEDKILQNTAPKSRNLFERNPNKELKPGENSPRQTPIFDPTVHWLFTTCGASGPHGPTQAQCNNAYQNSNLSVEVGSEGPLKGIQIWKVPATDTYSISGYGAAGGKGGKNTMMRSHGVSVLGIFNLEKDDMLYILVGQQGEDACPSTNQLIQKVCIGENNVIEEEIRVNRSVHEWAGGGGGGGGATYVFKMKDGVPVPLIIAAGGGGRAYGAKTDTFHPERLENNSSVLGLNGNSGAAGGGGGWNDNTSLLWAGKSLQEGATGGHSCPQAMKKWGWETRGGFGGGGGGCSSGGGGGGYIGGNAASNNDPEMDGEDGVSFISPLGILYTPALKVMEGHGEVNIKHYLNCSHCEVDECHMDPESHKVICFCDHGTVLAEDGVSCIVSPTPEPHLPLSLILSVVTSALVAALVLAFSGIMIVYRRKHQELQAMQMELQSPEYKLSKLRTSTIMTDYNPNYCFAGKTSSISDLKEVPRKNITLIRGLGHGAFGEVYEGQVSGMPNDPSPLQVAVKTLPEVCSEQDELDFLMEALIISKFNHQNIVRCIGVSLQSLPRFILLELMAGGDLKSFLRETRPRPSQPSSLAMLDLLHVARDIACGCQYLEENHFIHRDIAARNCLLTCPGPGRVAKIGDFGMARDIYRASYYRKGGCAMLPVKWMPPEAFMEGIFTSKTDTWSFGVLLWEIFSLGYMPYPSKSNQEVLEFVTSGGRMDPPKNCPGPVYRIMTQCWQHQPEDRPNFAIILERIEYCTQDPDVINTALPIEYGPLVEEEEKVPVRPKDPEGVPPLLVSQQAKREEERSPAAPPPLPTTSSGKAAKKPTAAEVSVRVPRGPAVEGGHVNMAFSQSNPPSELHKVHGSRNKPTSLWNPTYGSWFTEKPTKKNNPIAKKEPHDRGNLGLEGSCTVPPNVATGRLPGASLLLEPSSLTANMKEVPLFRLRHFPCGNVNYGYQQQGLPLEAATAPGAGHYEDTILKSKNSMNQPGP

binding result | Binder
binds | B5
